Experimental data reported in article PMC9036094, “Antigen-derived peptides engage the ER stress sensor IRE1α to curb dendritic cell cross-presentation” (The Journal of Cell Biology, 2022).

Legend:
[1] = tested on: IRE1α in mouse embryonic fibroblasts (MEFs); assay: IRE1α activation in MEFs (immunoblot); assay type: cell-based; conditions: ovalbumin, 4 h
Experimental: Figure S1. Antigen pulsing of BMDCs activates IRE1α. (A) BMDCs were treated with MG132 (5 μM) or ovalbumin (500 μg/ml) for indicated time points and analyzed by IB. (B) BMDCs were pulsed with ovalbumin (500 μg/ml) and G9668 (3 μM) for indicated time periods and analyzed by IB. (C) Molecular structure, potency, and kinase selectivity of G9668. (D) Schematic representation of G9668 interaction with 220 kinases at 1 μM. Size and color of circles represent interaction strength. Analysis was conducted by KinomeScan. (E) BMDCs were pulsed for 4 h with APC-tagged ovalbumin or soluble CD4-Fc protein (500 μg/ml) with amiloride (10 μM); uptake of protein was assayed by flow cytometry (n = 3). (F) WT or MyD88 KO Flt3L-derived BMDCs were pulsed with ovalbumin (500 μg/ml) or soluble CD4-Fc protein (500 μg/ml), or treated with LPS (10 μg/ml) for 4 h and analyzed by IB. (G) MEFs and BMDCs were pulsed with ovalbumin or treated with Tg (100 nM) for 4 h and analyzed by IB. Images in A, B, F, and G represent at least two similar experiments, and molecular weights represent kD; E bar graphs represent mean ± SD from three independent biological repeats. Analysis for E was performed using unpaired, two-tailed t test; *, P ≤ 0.05; **, P ≤ 0.01. Source data are available for this figure: SourceData FS1. […]

IRE1α LD-Fc = assay: Co-immunoprecipitation of ovalbumin with IRE1α LD-Fc; assay type: binding, human; conditions: LD-Fc 10 μg/ml, 2 h; ovalbumin 1-300 μg/ml; in words
Experimental: For experiments testing ovalbumin binding, a human LD-Fc was used at indicated concentrations. LD-Fc is comprised of amino acids M1-D443 of IRE1α fused C-terminally to a linker ([…]) followed by the human IgG1 hinge and Fc portion. Ovalbumin (Sigma-Aldrich) was dissolved in sterile PBS and used in native state or denatured as indicated by incubation at 95°C buffer for 10 min.
For co-immunoprecipitation experiments, IRE1α LD-Fc (10 μg/ml) and ovalbumin (indicated concentrations) were co-incubated in binding buffer (as described above) for 2 h and then immunoprecipitated with anti-IRE1α LD antibody (made in-house at Genentech), conjugated to sepharose beads, overnight at 4°C. Beads were subsequently washed four times with lysis buffer and boiled in SDS sample buffer for 10 min. Samples were then analyzed by SDS-PAGE followed by immunoblot.

B1: ovalbumin: classical protein antigen ovalbumin (Sigma-Aldrich) (protein)
chain: MGSIGAASMEFCFDVFKELKVHHANENIFYCPIAIMSALAMVYLGAKDSTRTQINKVVRFDKLPGFGDSIEAQCGTSVNVHSSLRDILNQITKPNDVYSFSLASRLYAEERYPILPEYLQCVKELYRGGLEPINFQTAADQARELINSWVESQTNGIIRNVLQPSSVDSQTAMVLVNAIVFKGLWEKAFKDEDTQAMPFRVTEQESKPVQMMYQIGLFRVASMASEKMKILELPFASGTMSMLVLLPDEVSGLEQLESIINFEKLTEWTSSNVMEERKIKVYLPRMKMEEKYNLTSVLMAMGITDVFSSSANLSGISSAESLKISQAVHAAHAEINEAGREVVGSAEAGVDAASVSEEFRADHPFLFCIKHIATNAVLFFGRCVSP
IRE1α activation, MEFs [1]: did not display detectable IRE1α activation
co-immunoprecipitation with IRE1α LD-Fc (IRE1α LD-Fc): did not show appreciable binding
